Experimental data from patent US20140378374A1, “METHODS OF TREATMENT” (GlaxoSmithKline Intellectual Property (No.2) Limited, priority 2013, published 2014).
Read-outs that look alike come from different tables or passages of the source.

Legend:
patients with T2DM = experiment: Phase 3 pooled analysis (Harmony 2, 4, 5, 8) of efficacy and safety by renal impairment severity, through primary endpoint (26 to 52 weeks)
Method: Patients with T2DM were enrolled in 3 similarly designed Phase 3 studies ^11-13 (Harmony 2, Harmony 4 and Harmony 5) and one Phase 3 study in patients with varying degrees of renal impairment (Harmony 8). ^10 These studies were randomized, double-blind (one open-label), active- (sitagliptin, pioglitazone, or glimepiride) or placebo-controlled, parallel-group, multicenter trials in which albiglutide (30 to 50 mg) was administered once weekly. In all 4 studies, men and nonpregnant women who were ≧18 years of age with a historical diagnosis of T2DM, and who were inadequately controlled (HbA1c≧7.0% and ≦10.0%) on diet and exercise and/or their current regimen of anti-diabetic agents (ie, metformin, thiazolidinedione, sulfonylurea, or any combination of these oral anti-diabetic medications) were eligible to enroll. Additional eligibility criteria included fasting C peptide of ≧0.8 ng/mL (≧0.26 nmol/L) and BMI between 20 and 45 kg/m^2. Harmony 8, the study in CKD patients, required estimated GFR≧15 and <90 mL/min/1.73 m^2, whereas the other 3 studies required estimated GFR>60 mL/min/1.73 m^2. […] Patients who met additional exclusion criteria, including requirements for levels of total bilirubin, alanine aminotransferase, aspartate aminotransferase, amylase, lipase, fasting triglycerides, and hemoglobin were also excluded.
Efficacy (HbA1c, fasting plasma glucose [FPG] and body weight) was assessed in each of the 4 studies by change from baseline to the primary endpoint (week 26 to week 52) using last observation carried forward for missing data. Rescue medications were allowed in subjects with persistent hyperglycemia (REF), however, efficacy data obtained after hyperglycemic rescue were not included and replaced with pre-rescue values for efficacy evaluation. Safety was assessed by monitoring the incidence of treatment emergent adverse events throughout the studies.
To evaluate efficacy and tolerability in different renal population, efficacy and tolerability data from patients with pop PK sample across 4 Phase 3 studies were extracted. Descriptive analysis were conducted up to primary endpoint (week 52 for Harmony 2, Harmony 4 and Harmony 5 and week 26 for study Harmony 8). Baseline demographics are summarized by renal impairment severity (normal, mild, moderate and severe). Efficacy parameters such as change from baseline of HbA1c, FPG, weight are also summarized by renal impairment severity. LOCF (Last Observation Carried Forward) approach is used in efficacy evaluation. Except for hypoglycemia, tolerability (AE, SAE and AE cause withdraw) were summarized by renal impairment severity for all data up to primary endpoint including post-rescue data. Hypoglycemia events (severe and documented symptomatic) were evaluated by renal impairment severity only include pre-rescue data.

patients with T2D and RI = assay type: in vivo, human; conditions: for Model-adjusted change from baseline A1C, LS mean (SE): ANCOVA
Method: Therapies for type 2 diabetes mellitus (T2DM) with renal impairment (RI) are limited and may require dose adjustment. This 52-week randomized, double blind, active controlled, Phase III parallel group study examined efficacy/safety of QW Albi injections (30 mg uptitrated to 50 mg if needed) vs daily Sita in patients with T2D and RI (eGFR≧15 and <90 mL/min/1.73 m^2) and A1C 7-10% on lifestyle (11% of subjects) or metformin (Met), thiazoldinedone (TZD), sulfonylureas (SU), or any combination (89% of patients). […] Primary endpoint was A1C change at week 26 for Albi vs Sita (noninferiority with subsequent superiority analysis). Eligible subjects were men or non pregnant, nonlactating women, 18 years of age or older, with a historical diagnosis of T2DM who were experiencing inadequate glycemic control on their current regimen of diet and exercise or their antidiabetic therapy of metformin, TZD, SU, or any combination of these OAD medications.

[1] = range over renal function groups of the pooled analysis
[2] = Week 26, Moderate RI (eGFR 30-59)
[3] = Week 26, Severe RI (eGFR 15-29)

Albiglutide: recombinant fusion protein of 2 copies of modified human GLP-1 (fragment 7-36(A8G)) genetically fused in series to recombinant human serum albumin
neutralizing anti-albiglutide antibodies (patients with T2DM; 4 trials of the pooled analysis): none of the antibodies were neutralizing | Pre-Rescue Hypoglycemia: Documented Symptomatic, With background SU (patients with T2DM; Mild): 70 (17) N (%) | Pre-Rescue Hypoglycemia: Documented Symptomatic, Without background SU (patients with T2DM; Mild): 3 (1.4) N (%) | Pre-Rescue Hypoglycemia: Severe, With background SU (patients with T2DM; Mild): 1 (0.2) N (%) | Pre-Rescue Hypoglycemia: Severe, Without background SU (patients with T2DM; Mild): 0 (0) N (%) | AEs leading to withdrawal (patients with T2DM; Mild (n = 633)): 37 (5.8) N (%) | Abdominal distention (patients with T2DM; Mild (n = 633)): 5 (0.8) N (%) | Anemia (patients with T2DM; Mild (n = 633)): 15 (2.4) N (%) | Any AE (patients with T2DM; Mild (n = 633)): 511 (81) N (%) | Constipation (patients with T2DM; Mild (n = 633)): 25 (3.9) N (%) | Diarrhea (patients with T2DM; Mild (n = 633)): 55 (8.7) N (%) | Edema peripheral (patients with T2DM; Mild (n = 633)): 21 (3.3) N (%) | Gastrointestinal disorders system organ class: Any event (patients with T2DM; Mild (n = 633)): 205 (32) N (%) | Injection site reaction (patients with T2DM; Mild (n = 633)): 51 (8.1) N (%) | Nasopharyngitis (patients with T2DM; Mild (n = 633)): 51 (8.1) N (%) | Nausea (patients with T2DM; Mild (n = 633)): 60 (9.5) N (%) | Pre-Rescue Hypoglycemia: Documented Symptomatic (overall) (patients with T2DM; Mild (n = 633)): 73 (12) N (%) | Pre-Rescue Hypoglycemia: Severe (overall) (patients with T2DM; Mild (n = 633)): 1 (0.2) N (%) | Renal Impairment (adverse event) (patients with T2DM; Mild (n = 633)): 0 (0) N (%) | Serious AE (patients with T2DM; Mild (n = 633)): 52 (8.2) N (%) | Pre-Rescue Hypoglycemia: Documented Symptomatic, With background SU (patients with T2DM; Moderate): 28 (20) N (%) | Pre-Rescue Hypoglycemia: Documented Symptomatic, Without background SU (patients with T2DM; Moderate): 0 (0) N (%) | Pre-Rescue Hypoglycemia: Severe, With background SU (patients with T2DM; Moderate): 0 (0) N (%) | Pre-Rescue Hypoglycemia: Severe, Without background SU (patients with T2DM; Moderate): 0 (0) N (%) | AEs leading to withdrawal (patients with T2DM; Moderate (n = 175)): 11 (6.3) N (%) | Abdominal distention (patients with T2DM; Moderate (n = 175)): 2 (1.1) N (%) | Anemia (patients with T2DM; Moderate (n = 175)): 5 (2.9) N (%) | Any AE (patients with T2DM; Moderate (n = 175)): 139 (79) N (%) | Constipation (patients with T2DM; Moderate (n = 175)): 11 (6.3) N (%) | Diarrhea (patients with T2DM; Moderate (n = 175)): 23 (13) N (%) | Edema peripheral (patients with T2DM; Moderate (n = 175)): 4 (2.3) N (%) | Gastrointestinal disorders system organ class: Any event (patients with T2DM; Moderate (n = 175)): 58 (33) N (%) | Injection site reaction (patients with T2DM; Moderate (n = 175)): 12 (6.9) N (%) | Nasopharyngitis (patients with T2DM; Moderate (n = 175)): 14 (8.0) N (%) | Nausea (patients with T2DM; Moderate (n = 175)): 13 (7.4) N (%) | Pre-Rescue Hypoglycemia: Documented Symptomatic (overall) (patients with T2DM; Moderate (n = 175)): 28 (16) N (%) | Pre-Rescue Hypoglycemia: Severe (overall) (patients with T2DM; Moderate (n = 175)): 0 (0) N (%) | Renal Impairment (adverse event) (patients with T2DM; Moderate (n = 175)): 3 (1.7) N (%) | Serious AE (patients with T2DM; Moderate (n = 175)): 17 (9.7) N (%) | Pre-Rescue Hypoglycemia: Documented Symptomatic, With background SU (patients with T2DM; Normal): 44 (21) N (%) | Pre-Rescue Hypoglycemia: Documented Symptomatic, Without background SU (patients with T2DM; Normal): 0 (0) N (%) | Pre-Rescue Hypoglycemia: Severe, With background SU (patients with T2DM; Normal): 1 (0.3) N (%) | Pre-Rescue Hypoglycemia: Severe, Without background SU (patients with T2DM; Normal): 0 (0) N (%) | AEs leading to withdrawal (patients with T2DM; Normal (n = 286)): 11 (3.8) N (%) | Abdominal distention (patients with T2DM; Normal (n = 286)): 2 (0.7) N (%) | Anemia (patients with T2DM; Normal (n = 286)): 6 (2.1) N (%) | Any AE (patients with T2DM; Normal (n = 286)): 232 (81) N (%) | Constipation (patients with T2DM; Normal (n = 286)): 8 (2.8) N (%) | Diarrhea (patients with T2DM; Normal (n = 286)): 20 (7.0) N (%) | Edema peripheral (patients with T2DM; Normal (n = 286)): 5 (1.7) N (%) | Gastrointestinal disorders system organ class: Any event (patients with T2DM; Normal (n = 286)): 76 (27) N (%) | Injection site reaction (patients with T2DM; Normal (n = 286)): 32 (11) N (%) | Nasopharyngitis (patients with T2DM; Normal (n = 286)): 19 (6.6) N (%) | Nausea (patients with T2DM; Normal (n = 286)): 23 (8.0) N (%) | Pre-Rescue Hypoglycemia: Documented Symptomatic (overall) (patients with T2DM; Normal (n = 286)): 44 (15) N (%) | Pre-Rescue Hypoglycemia: Severe (overall) (patients with T2DM; Normal (n = 286)): 1 (0.3) N (%) | Renal Impairment (adverse event) (patients with T2DM; Normal (n = 286)): 0 (0) N (%) | Serious AE (patients with T2DM; Normal (n = 286)): 17 (5.9) N (%) | Pre-Rescue Hypoglycemia: Documented Symptomatic, With background SU (patients with T2DM; Severe): 4 (29) N (%) | Pre-Rescue Hypoglycemia: Documented Symptomatic, Without background SU (patients with T2DM; Severe): 0 (0) N (%) | Pre-Rescue Hypoglycemia: Severe, With background SU (patients with T2DM; Severe): 0 (0) N (%) | Pre-Rescue Hypoglycemia: Severe, Without background SU (patients with T2DM; Severe): 0 (0) N (%) | AEs leading to withdrawal (patients with T2DM; Severe (n = 19)): 2 (11) N (%) | Abdominal distention (patients with T2DM; Severe (n = 19)): 2 (11) N (%) | Anemia (patients with T2DM; Severe (n = 19)): 4 (21) N (%) | Any AE (patients with T2DM; Severe (n = 19)): 12 (63) N (%) | Constipation (patients with T2DM; Severe (n = 19)): 2 (11) N (%) | Diarrhea (patients with T2DM; Severe (n = 19)): 4 (21) N (%) | Edema peripheral (patients with T2DM; Severe (n = 19)): 3 (16) N (%) | Gastrointestinal disorders system organ class: Any event (patients with T2DM; Severe (n = 19)): 8 (42) N (%) | Injection site reaction (patients with T2DM; Severe (n = 19)): 1 (5.3) N (%) | Nasopharyngitis (patients with T2DM; Severe (n = 19)): 1 (5.3) N (%) | Nausea (patients with T2DM; Severe (n = 19)): 3 (16) N (%) | Pre-Rescue Hypoglycemia: Documented Symptomatic (overall) (patients with T2DM; Severe (n = 19)): 4 (21) N (%) | Pre-Rescue Hypoglycemia: Severe (overall) (patients with T2DM; Severe (n = 19)): 0 (0) N (%) | Renal Impairment (adverse event) (patients with T2DM; Severe (n = 19)): 4 (21) N (%) | Serious AE (patients with T2DM; Severe (n = 19)): 0 (0) N (%) | treatment effect as measured by HbA1c and FPG vs GFR (patients with T2DM; change from baseline, scatter plot): trend towards greater reductions as GFR decreased | thyroid cancer (patients with T2DM; in vivo): No patient developed thyroid cancer | nausea, percentage (patients with T2DM; mild group): 9.5% | vomiting, percentage (patients with T2DM; mild group): 3.2% | nausea, percentage (patients with T2DM; moderate group): 7.4% | vomiting, percentage (patients with T2DM; moderate group): 2.9% | nausea, percentage (patients with T2DM; normal group): 8.0% | vomiting, percentage (patients with T2DM; normal group): 2.1% | subjects with severe hypoglycemic events (patients with T2DM; normal, mild renal impairment, with background SU use): 2 | patients with probable pancreatitis at least possibly related to study drug (patients with T2DM; one with mild and one with moderate renal impairment): Two | nausea percentage, range (patients with T2DM; [1]): 7-16% | vomiting percentage, range (patients with T2DM; [1]): 2-5% | incidence of anti-albiglutide antibodies (patients with T2DM; range over the 4 trials of the pooled analysis): 2.8% to 8.1 | nausea, percentage (patients with T2DM; severe group): 16% | vomiting, percentage (patients with T2DM; severe group): 5.3% | Week 26 A1C, mean (patients with T2D and RI; Any RI (eGFR 15-89)): 7.27% | Week 26 A1C, mean (patients with T2D and RI; Mild RI (eGFR 60-89 mL/min/1.73 m2)): 7.23% | Week 26 A1C, mean (patients with T2D and RI; Moderate RI (eGFR 30-59)): 7.37% | A1C change at week 26, Albi vs Sita, superiority analysis (patients with T2D and RI; P=0.0003): superior | Week 26 A1C, mean (patients with T2D and RI; Severe RI (eGFR 15-29)): 6.97% | A1C<7% achieved, patients (patients with T2D and RI; Week 26): 42.6% | FPG change (patients with T2D and RI; Week 26): -25.6 mg/dL | weight change (patients with T2D and RI; Week 26): -0.8 kg | Model-adjusted change from baseline A1C, LS mean (SE) (patients with T2D and RI; Week 26, Any RI (eGFR 15-89)): −0.83% | Model-adjusted change from baseline A1C, LS mean (SE) (patients with T2D and RI; Week 26, Mild RI (eGFR 60-89)): −0.80% | Model-adjusted change from baseline A1C, LS mean (SE) (patients with T2D and RI; [2]): −0.83% | Model-adjusted change from baseline A1C, LS mean (SE) (patients with T2D and RI; [3]): −1.08% | Change from baseline A1C, mean (SD) (patients with T2D and RI; Week 26, Any RI (eGFR 15-89)): −0.82% | Difference of LS means from sitagliptin (95% CI), A1C (patients with T2D and RI; Week 26, Any RI (eGFR 15-89)): 0.32% | Difference of LS means from sitagliptin (95% CI), A1C (patients with T2D and RI; Week 26, Any RI (eGFR 15-89), listed as Albi): −0.32% | Change from baseline A1C, mean (SD) (patients with T2D and RI; Week 26, Mild RI (eGFR 60-89)): −0.72% | Difference of LS means from sitagliptin (95% CI), A1C (patients with T2D and RI; Week 26, Mild RI (eGFR 60-89)): −0.13% | Change from baseline A1C, mean (SD) (patients with T2D and RI; [2]): −0.88% | Difference of LS means from sitagliptin (95% CI), A1C (patients with T2D and RI; [2]): −0.53% | Change from baseline A1C, mean (SD) (patients with T2D and RI; [3]): −1.08% | Difference of LS means from sitagliptin (95% CI), A1C (patients with T2D and RI; [3]): −0.47% | Adverse Event rate: diarrhea (patients with T2D and RI; in vivo): 8.8% | Adverse Event rate: nausea (patients with T2D and RI; in vivo): 4.8% | Adverse Event rate: vomiting (patients with T2D and RI; in vivo): 1.6% | Anti-Albi antibody rate (patients with T2D and RI; in vivo): 2.8% | Anti-Albi antibody, neutralizing (patients with T2D and RI; in vivo): 0% | Hypoglycemia rate (patients with T2D and RI; in vivo): 20.5% | Hypoglycemia, severe (number) (patients with T2D and RI; in vivo): 0 | Injection site reaction rate (patients with T2D and RI; in vivo): 6.8% | On-therapy adverse event: Constipation (patients with T2D and RI; in vivo): 15 (6.0) n (%) | On-therapy adverse event: Diarrhea (patients with T2D and RI; in vivo): 22 (8.8) n (%) | On-therapy adverse event: Hypertension (patients with T2D and RI; in vivo): 10 (4.0) n (%) | On-therapy adverse event: Nasopharyngitis (patients with T2D and RI; in vivo): 13 (5.2) n (%) | On-therapy adverse event: Upper respiratory tract infection (patients with T2D and RI; in vivo): 9 (3.6) n (%) | On-therapy adverse event: Urinary tract infection (patients with T2D and RI; in vivo): 8 (3.2) n (%)
